Measurements taken from PMC10651130.

Biological target: RapR-LIMK1-Flag (LIMK1 T508D with iFKBP inserted in place of E360, flanked by GPG linkers) (UniProt P53667)
Assay: co-IP

A normalized binding to TrkB (500 nM rapamycin) of 98.6% was found for “TrkB-EGFP (tropomyosin receptor kinase B, EGFP-tagged) (from UniProt Q16620 32-822)” in this work.
